# Laboratory results published in the supplement of paper PMC11246515.
# ± gives the standard deviation of the averaged measurements.
# Experiment: total protein half-life in vivo (active degradation + dilution); higher = more stable protein
# [1] = E. coli NCM3722 delta-clpP delta-lon delta-hslV, growth: N-lim chemostat, doubling time 6 h
# [2] = E. coli NCM3722 delta-hslV, growth: N-lim chemostat, doubling time 6 h
# [3] = E. coli NCM3722 delta-lon, growth: N-lim chemostat, doubling time 6 h
# [4] = E. coli NCM3722 delta-smpB, growth: N-lim chemostat, doubling time 6 h
# [5] = wild type E. coli NCM3722, growth: C-lim chemostat, doubling time 3 h
# [6] = wild type E. coli NCM3722, growth: C-lim chemostat, doubling time 12 h
# [7] = wild type E. coli NCM3722, growth: N-lim chemostat, doubling time 6 h
# [8] = wild type E. coli NCM3722, growth: N-lim chemostat, doubling time 12 h
# [9] = wild type E. coli NCM3722, growth: P-lim chemostat, doubling time 6 h
# [10] = E. coli NCM3722 delta-clpP, growth: N-lim chemostat, doubling time 6 h
# [11] = wild type E. coli NCM3722, growth: C-lim chemostat, doubling time 6 h
# [12] = wild type E. coli NCM3722, growth: P-lim chemostat, doubling time 12 h
Sequence,total protein half-life in vivo [1],total protein half-life in vivo [2],total protein half-life in vivo [3],total protein half-life in vivo [4],total protein half-life in vivo [5],total protein half-life in vivo [6],total protein half-life in vivo [7],total protein half-life in vivo [8],total protein half-life in vivo [9],total protein half-life in vivo [10],total protein half-life in vivo [11],total protein half-life in vivo [12]
MSLPHCPKCNSEYTYEDNGMYICPECAYEWNDAEPAQESDELIVKDANGNLLADGDSVTIIKDLKVKGSSSMLKIGTKVKNIRLVEGDHNIDCKIDGFGPMKLKSEFVKKN [P0AFJ1],5.52 ± 0.25 h,6.14 ± 1.1 h,5.91 ± 1 h,4.71 ± 0.15 h,2.53 ± 0.093 h,10.2 ± 0.45 h,4.88 h,10.2 ± 0.21 h,5.38 ± 0.21 h,,,
MSLPMLQVALDNQTMDSAYETTRLIAEEVDIIEVGTILCVGEGVRAVRDLKALYPHKIVLADAKIADAGKILSRMCFEANADWVTVICCADINTAKGALDVAKEFNGDVQIELTGYWTWEQAQQWRDAGIGQVVYHRSRDAQAAGVAWGEADITAIKRLSDMGFKVTVTGGLALEDLPLFKGIPIHVFIAGRSIRDAASPVEAARQFKRSIAELWG,5.41 h,2.68 h,,4.15 ± 2.2 h,2.29 ± 0.076 h,5.84 ± 1.4 h,,,2.69 h,2.49 h,5.11 ± 1.5 h,3.39 h
MSLSLWQQCLARLQDELPATEFSMWIRPLQAELSDNTLALYAPNRFVLDWVRDKYLNNINGLLTSFCGADAPQLRFEVGTKPVTQTPQAAVTSNVAAPAQVAQTQPQRAAPSTRSGWDNVPAPAEPTYRSNVNVKHTFDNFVEGKSNQLARAAARQVADNPGGAYNPLFLYGGTGLGKTHLLHAVGNGIMARKPNAKVVYMHSERFVQDMVKALQNNAIEEFKRYYRSVDALLIDDIQFFANKERSQEEFFHTFNALLEGNQQIILTSDRYPKEINGVEDRLKSRFGWGLTVAIEPPELETRVAILMKKADENDIRLPGEVAFFIAKRLRSNVRELEGALNRVIANANFTGRAITIDFVREALRDLLALQEKLVTIDNIQKTVAEYYKIKVADLLSKRRSRSVARPRQMAMALAKELTNHSLPEIGDAFGGRDHTTVLHACRKIEQLREESHDIKEDFSNLIRTLSS,5.49 ± 0.27 h,2.83 ± 0.047 h,3.85 ± 0.16 h,2.8675 ± 0.00078 h,2.183 ± 0.021 h,5.25 ± 0.15 h,2.94 ± 0.26 h,3.79 ± 0.058 h,3.61 ± 0.12 h,4.24 ± 0.24 h,3.897 ± 0.019 h,6.1 ± 0.38 h
MSLSRTQIVNWLTRCGDIFSTESEYLTGLDREIGDADHGLNMNRGFSKVVEKLPAIADKDIGFILKNTGMTLLSSVGGASGPLFGTFFIRAAQATQARQSLTLEELYQMFRDGADGVISRGKAEPGDKTMCDVWVPVVESLRQSSEQNLSVPVALEAASSIAESAAQSTITMQARKGRASYLGERSIGHQDPGATSVMFMMQMLALAAKE,4.62 ± 0.54 h,4.36 ± 0.067 h,4.75 ± 0.52 h,4.23 ± 0.14 h,2.93 ± 0.12 h,9.74 ± 0.25 h,4.432 ± 0.04 h,7.23 ± 0.11 h,4.75 ± 1.6 h,4.25 ± 0.72 h,5.43 ± 0.13 h,11.8 ± 0.41 h
MSLTRLLIRDFRNIETADLALSPGFNFLVGANGSGKTSVLEAIYTLGHGRAFRSLQIGRVIRHEQEAFVLHGRLQGEERETAIGLTKDKQGDSKVRIDGTDGHKVAELAHLMPMQLITPEGFTLLNGGPKYRRAFLDWGCFHNEPGFFTAWSNLKRLLKQRNAALRQVTRYEQLRPWDKELIPLAEQISTWRAEYSAGIAADMADTCKQFLPEFSLTFSFQRGWEKETEYAEVLERNFERDRQLTYTAHGPHKADLRIRADGAPVEDTLSRGQLKLLMCALRLAQGEFLTRESGRRCLYLIDDFASELDDERRGLLASRLKATQSQVFVSAISAEHVIDMSDENSKMFTVEKGKITD [P0A7H0],5.54 ± 0.29 h,3.95 ± 0.053 h,4.92 ± 0.21 h,3.93 ± 0.32 h,,9.88 ± 0.3 h,4.32 ± 0.1 h,8.32 ± 0.12 h,4.06 ± 1 h,4.43 ± 0.14 h,5.07 ± 0.41 h,7.31 ± 0.63 h
MSLVCSVIFIHHAFNANILDKDYAFSDGEILMVDNAVRTHFEPYERHFKEIGFTENTIKKYLQCTNIQTVTVPVPAKFLRASNVPTGLLNEMIAYLNSEERNHHNFSELLLFSCLSIFAACKGFITLLTNGVLSVSGKVRNIVNMKPAHPWKLKDICDCLYISESLLKKKLKQEQTTFSQILLDARMQHAKNLIRVEGSVNKIAEQCGYASTSYFIYAFRKHFGNSPKRVSKEYRCQSHTGMNTGNTMNALAI,4.92 h,,,,,,,,,,,
MSLVTDLPAIFDQFSEARQTGFLTVMDLKERGIPLVGTYCTFMPQEIPMAAGAVVVSLCSTSDETIEEAEKDLPRNLCPLIKSSYGFGKTDKCPYFYFSDLVVGETTCDGKKKMYEYMAEFKPVHVMQLPNSVKDDASRALWKAEMLRLQKTVEERFGHEISEDALRDAIALKNRERRALANFYHLGQLNPPALSGSDILKVVYGATFRFDKEALINELDAMTARVRQQWEEGQRLDPRPRILITGCPIGGAAEKVVRAIEENGGWVVGYENCTGAKATEQCVAETGDVYDALADKYLAIGCSCVSPNDQRLKMLSQMVEEYQVDGVVDVILQACHTYAVESLAIKRHVRQQHNIPYIAIETDYSTSDVGQLSTRVAAFIEML,,,,,1.59 ± 0.089 h,2.51 ± 0.083 h,,,,,1.98 h,
